Test results from patent publication US20080107658A1 (AstraZeneca / MedImmune, published 2008).
Changes are numbered by the printed parent chain.

B1: 1028F8 human IgG4 (antibody, V domains shown)
VH: EVQLLESGGGLVQPGGSLRLSCAASGFTFSSYAMSWVRQAPGKGLEWVSAIIGSGGSTYYADSVKGRFTISRDNSKNTLYLQMNSLRAEDTAVYYCARAGGSGWFENWFDPWGRGTLVTVSS
VL: QSVLTQPPSVSVSPGQTATITCSGDNLEDKYVSWYQQKAGQSPVLVIFQDSKRPSEIPERFSGSNSGNTATLTISGTLSGDEADYYCQVWDAGIDPWAFGGGTKLTVL
B2: 1033B2 human IgG4 (antibody, V domains shown)
VH: QVQLQQSGAEVKKPGSSVKLSCKASGGTFSSFGISWVRQAPGQGLEWLGRIIPFLGPADYAQKFQGRVTITADESRSTAYMELSSLTSEDTAVYFCARSFYDILTGYYEGVFYYYMDVWGQGTMVTVSS
VL: QSVLIQPASVSGSPGQSITISCTGTSSDVGGYNYVSWYQQHPGKAPKLMIYEGSKRPSGVSNRFSGSKSGNTASLTISGLQAEDEADYYCSSYTTRSTRVFGGGTKLTVL
B3: 1057F11 human IgG4 (antibody, V domains shown)
VH: EVQLVETGGGVVQPGTSLRLSCAASGFTFSSHGMHWVRQAPGQGLEWVAHAWSDGSNKYYADSLKGRFTISRDNSRNTLYLQMNSLRAEDTAVYYCARDGQQLANYAMDVWGRGTTVTVSS
VL: DIQMTQSPSFLSASVGDRVTITCRASQGINSYLAWYQQIPGKAPNLLIYAASTLQSGVPSRFSGSGSGTEFTLTISSLQPEDFATYYCQQLNTYPFTFGPGTKVEIK
B4: 1126F1 human IgG4 (antibody, V domains shown)
VH: EVQLVQTGAEVKKPGSSVKVSCKASGGTFSTYGISWVRQAPGQGLEWIGGIIPIFDTGNSAQSFQGRVTITADESTSTAYMEVSSLRSDDTAVYYCASSSRIYDANRQAVPYYDMDVWGQGTMVTVSS
VL: QAVLTQPSSVSTPPGQMVTISCSGSSSDIGNNYVSWYQQLPGTAPKLLIYDNNKRPSGIPDRFSGSKSGTSATLGITGLQTGDEADYYCGTWDSSLSAWVFGGGTKLTVL
B5: 1126G5 human IgG4 (antibody, V domains shown)
VH: B4 VH with T7S, A105F, N106T, R107S, Q108G, A109L, V110A
VL: B4 VL with M17K, D28N, S57P, A98T
B6: 1126H5 human IgG4 (antibody, V domains shown)
VH: B4 VH with T7S, T57A, Y80H, D89E, A105H, N106H, R107I, A109K, V110G, P111G
VL: B4 VL with M17K, D28N
B7: 1127D9 human IgG4 (antibody, V domains shown)
VH: EVQLVQSGAEVKKPGSSVKVSCKASGGTFSTYGISWVRQAPGQGLEWIGGIIPIFDTGNSAQSFQGRVTITADESTSTAYMEVSSLRSDDTAVYYCASSSRIYDYHTIAYYDMDVWGQGTMVTVSS
VL: B4 VL with M17K, D28N
B8: 1127F9 human IgG4 (antibody, V domains shown)
VH: B4 VH with T7S, E82K, A105Y, N106I, R107P, Q108G, A109M, V110R
VL: B4 VL with M17K, S25N, D28N, K67R, S71L
B9: 1131D7 human IgG4 (antibody, V domains shown)
VH: B4 VH with T7S, A105F, R107S, Q108S, A109L, V110I, P111A
VL: B4 VL with M17K, D28N, A85T, G102S
B10: 1131H2 human IgG4 (antibody, V domains shown)
VH: B4 VH with T7S, S17T, A105L, R107P, Q108S, A109L, V110T, P111A
VL: B4 VL with M17K, S25T, D28N
B11: 1132A9 human IgG4 (antibody, V domains shown)
VH: B4 VH with T7S, D56G, A105F, N106E, R107P, Q108S, A109L, V110I, P111Y
VL: B4 VL with M17K, D28N
B12: 1132H9 human IgG4 (antibody, V domains shown)
VH: B4 VH with T7S, A105L, R107P, Q108S, A109L, V110T, P111A
VL: B4 VL with M17K, S57T
B13: 1134D9 human IgG4 (antibody, V domains shown)
VH: B4 VH with T7S, T69A, A105L, R107P, Q108S, A109L, V110T, P111A
VL: B4 VL with M17K, D28N, S95G
B14: 1145D1 human IgG4 (antibody, V domains shown)
VH: B4 VH with T7S, G58S, A105F, N106R, R107T, Q108L, A109Y, V110S, P111T
VL: B4 VL with M17K, D28N, P60S, T77A
B15: 1146D7 human IgG4 (antibody, V domains shown)
VH: B4 VH with T7S, A105L, R107P, Q108S, A109L, V110T, P111A
VL: B4 VL with M17E, S27T, D28N
B16: 1147D2 human IgG4 (antibody, V domains shown)
VH: B4 VH with T7S, K19R, V20I, I34V, A105L, R107P, Q108S, A109L, V110T, P111A
VL: B4 VL with M17K, D28N, I59V
B17: 1150F1 human IgG4 (antibody, V domains shown)
VH: B4 VH with T7S, G66D, S84G, A105L, R107P, Q108S, A109L, V110T, P111A, Q120H
VL: B4 VL with M17K, D28N
B18: 1021E5 scFv (scFv, part only; not given: Linker and tags, V domains shown, not shown: another chain or arm of the molecule; small tags and cut ends)
VH: B4 VH with T7S, A105Y, N106A, R107G, Q108G, A109D, V110H, P111Y
VL: B4 VL with M17K, D28N
B19: 1131H2 scFv (scFv, V domains shown)
VH: B4 VH with T7S, S17T, A105L, R107P, Q108S, A109L, V110T, P111A
VL: B4 VL with M17K, S25T, D28N
notes: also called LOT1131H02
B20: 1132H9 scFv (scFv, V domains shown)
VH: B4 VH with T7S, A105L, R107P, Q108S, A109L, V110T, P111A
VL: B4 VL with M17K, S57T
notes: also called LOT1132H09
B21: 1133C11 scFv (scFv, V domains shown)
VH: B4 VH with T7S, A105L, R107P, Q108S, A109L, V110T, P111A
VL: B4 VL with M17K, D28N
notes: also called LOT1133C11
B22: 1134D9 scFv (scFv, V domains shown)
VH: B4 VH with T7S, T69A, A105L, R107P, Q108S, A109L, V110T, P111A
VL: B4 VL with M17K, D28N, S95G
notes: also called LOT1134D09
B23: 1146D7 scFv (scFv, V domains shown)
VH: B4 VH with T7S, A105L, R107P, Q108S, A109L, V110T, P111A
VL: B4 VL with M17E, S27T, D28N
notes: also called LOT1146D07
B24: 1147D2 scFv (scFv, V domains shown)
VH: B4 VH with T7S, K19R, V20I, I34V, A105L, R107P, Q108S, A109L, V110T, P111A
VL: B4 VL with M17K, D28N, I59V
notes: also called LOT1147D02
B25: 1147G9 scFv (scFv, V domains shown)
VH: B4 VH with T7S, T31A, D56N, A105L, R107P, Q108S, A109L, V110T, P111A
VL: B4 VL with M17K, I20V, D28N
notes: also called LOT1147G09
B26: 1150F1 scFv (scFv, V domains shown)
VH: B4 VH with T7S, G66D, S84G, A105L, R107P, Q108S, A109L, V110T, P111A, Q120H
VL: B4 VL with M17K, D28N
notes: also called LOT1150F01
B27: 1160E3 scFv (scFv, V domains shown)
VH: B4 VH with T7S, V18A, A105L, R107P, Q108S, A109L, V110T, P111A
VL: B4 VL with M17K, S26N, D28N
notes: also called LOT1160E03
B28: 1165D4 scFv (scFv, V domains shown)
VH: B4 VH with T7S, A105L, R107P, Q108S, A109L, V110T, P111A
VL: B4 VL with M17K, D28N, G30E
notes: also called LOT1165D04
B29: 1218H5 scFv (scFv, V domains shown)
VH: B4 VH with T7S, E10V, N59S, A105L, R107P, Q108S, A109L, V110T, P111A
VL: B4 VL with M17K, D28N, I29T, P41S
notes: also called LOT1218H05

Target: T1, human nerve growth factor (beta-NGF) (human, UniProt P01138 122-241)
Test: cell-based or functional assay

T1 sequence (P01138 122-241): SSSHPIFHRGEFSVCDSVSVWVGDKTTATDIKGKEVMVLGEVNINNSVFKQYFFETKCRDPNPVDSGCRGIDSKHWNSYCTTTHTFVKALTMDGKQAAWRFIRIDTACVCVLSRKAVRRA

Point of comparison: B3, “IC50, calcium mobilisation assay” value ~3700 nM. Against it:
- B1 — 51-fold lower, 73 nM
- B2 — 44-fold lower, 85 nM

Target: T2, rat nerve growth factor (beta-NGF) (rat, UniProt P25427 122-241)
Test: cell-based or functional assay

T2 sequence (P25427 122-241): as the sequence (P01138 122-241) above, with S3T, I6V, R9M, M37T, D60A, D65E, M92T, G94D, V117A, A120G counted along it

Point of comparison: B5, “IC50, FLIPR calcium mobilisation” value 0.16 nM. Against it:
- B4 — within 1.5-fold, 0.15 nM
- B6 — within 1.5-fold, 0.15 nM
- B7 — within 1.5-fold, 0.22 nM
- B8 — within 1.5-fold, 0.14 nM
- B9 — 230-fold higher, 37 nM
- B10 — within 1.5-fold, 0.11 nM
- B11 — 1.6-fold higher, 0.25 nM
- B12 — within 1.5-fold, 0.13 nM
- B13 — within 1.5-fold, 0.14 nM
- B14 — within 1.5-fold, 0.17 nM
- B15 — 2.1-fold higher, 0.33 nM
- B16 — within 1.5-fold, 0.21 nM
- B17 — within 1.5-fold, 0.15 nM

Target: T1, human nerve growth factor (beta-NGF)
Test: cell-based or functional assay
Remark: another data set of the same source

Point of comparison: B4, “IC50, FLIPR calcium mobilisation” value 0.35 nM. Against it:
- B5 — 1.5-fold lower, 0.23 nM
- B6 — within 1.5-fold, 0.38 nM
- B7 — within 1.5-fold, 0.4 nM
- B8 — within 1.5-fold, 0.36 nM
- B9 — 330-fold higher, 117 nM
- B10 — within 1.5-fold, 0.27 nM
- B11 — within 1.5-fold, 0.39 nM
- B12 — the same, 0.35 nM
- B13 — within 1.5-fold, 0.31 nM
- B14 — within 1.5-fold, 0.36 nM
- B15 — within 1.5-fold, 0.38 nM
- B16 — within 1.5-fold, 0.36 nM
- B17 — within 1.5-fold, 0.32 nM

Point of comparison: B11, “IC50, PC12 cell survival” value 0.9 nM. Against it:
- B4 — 3.2-fold higher, 2.9 nM
- B5 — 1.7-fold higher, 1.5 nM
- B6 — 9.7-fold higher, 8.7 nM
- B7 — 1.6-fold lower, 0.57 nM
- B8 — 1.5-fold lower, 0.59 nM
- B9 — 740-fold higher, 670 nM
- B10 — 1.6-fold lower, 0.58 nM
- B12 — 1.6-fold lower, 0.55 nM
- B13 — 1.7-fold lower, 0.54 nM
- B14 — within 1.5-fold, 0.66 nM
- B15 — 1.9-fold lower, 0.48 nM
- B16 — 1.8-fold lower, 0.51 nM
- B17 — 1.9-fold lower, 0.47 nM

Target: mouse nerve growth factor (mouse, UniProt P01139 122-241)
Test: cell-based or functional assay

mouse nerve growth factor, sequence (P01139 122-241): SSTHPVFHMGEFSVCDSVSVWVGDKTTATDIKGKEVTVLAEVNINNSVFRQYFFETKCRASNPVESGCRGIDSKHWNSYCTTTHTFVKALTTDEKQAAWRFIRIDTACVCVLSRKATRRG

Point of comparison: B17, “IC50, FLIPR calcium mobilisation” value 0.19 nM. Against it:
- B4 — within 1.5-fold, 0.22 nM
- B5 — within 1.5-fold, 0.16 nM
- B6 — within 1.5-fold, 0.23 nM
- B7 — within 1.5-fold, 0.21 nM
- B8 — within 1.5-fold, 0.2 nM
- B9 — 370-fold higher, 71 nM
- B10 — 1.6-fold lower, 0.12 nM
- B11 — 1.7-fold higher, 0.33 nM
- B12 — within 1.5-fold, 0.16 nM
- B13 — within 1.5-fold, 0.16 nM
- B14 — within 1.5-fold, 0.24 nM
- B15 — 1.6-fold higher, 0.31 nM
- B16 — within 1.5-fold, 0.24 nM

Target: T2, rat nerve growth factor (beta-NGF)
Test: purified scFv, inhibition of rat NGF binding to TrkA fusion protein

Point of comparison: B21, IC50 1.24 nM. Against it:
- B18 — 220-fold higher, 269 nM
- B19 — 14-fold lower, 0.09 nM
- B20 — 1.8-fold lower, 0.68 nM
- B22 — 6.2-fold lower, 0.2 nM
- B23 — 62-fold lower, 0.02 nM
- B24 — 12-fold lower, 0.1 nM
- B25 — 120-fold lower, 0.01 nM
- B26 — 7.8-fold lower, 0.16 nM
- B27 — 5.6-fold lower, 0.22 nM
- B28 — 4.3-fold lower, 0.29 nM
- B29 — 41-fold lower, 0.03 nM

Target: T1, human nerve growth factor (beta-NGF)
Test: purified scFv, inhibition of human NGF binding to TrkA fusion protein

Point of comparison: B21, IC50 1.93 nM. Against it:
- B18 — 49-fold higher, 94 nM
- B19 — lower, < 0.01 nM
- B20 — 3.6-fold lower, 0.54 nM
- B22 — 14-fold lower, 0.14 nM
- B23 — 8.4-fold lower, 0.23 nM
- B24 — lower, < 0.01 nM
- B25 — 7.7-fold lower, 0.25 nM
- B26 — 9.6-fold lower, 0.2 nM
- B27 — 14-fold lower, 0.14 nM
- B28 — 18-fold lower, 0.11 nM
- B29 — lower, < 0.01 nM
